Numbered stars: 1 amine (or outer) side, 2 acyl side, 3 side chain; on linkers, the order of the positions; unused ones are H or OH. Square brackets hold non-standard residues; d marks the D form. Side chains are listed from the residue outwards. Ends that are not written are not given here. * marks the point of attachment. Dodecanoyl(12-OPh(4-COOH)) = O=C(O)c1ccc(OCCCCCCCCCCCC(=O)*)cc1; Decanoyl(10-(4-HOOC-PhO)) = O=C(O)c1ccc(OCCCCCCCCCC(=O)*)cc1; γGlu = O=C(O)[C@H](CCC(=O)[*:2])N[*:1]; C14 diacid = O=C(O)CCCCCCCCCCCCC(=O)*; AEEA = NCCOCCOCC(=O)O; Aib = CC(C)(N)C(=O)O
Key:
human GLP-1 receptor [1] = target: T1, human GLP-1 receptor (human, UniProt P43220 24-463); test: SPA displacement assay; IC50 at 2.0% HSA over IC50 at 0.001% HSA
T1 construct: whole, on cells; Used as purified plasma membranes of the stably transfected BHK cell line, not as intact cells; also called hGLP-1
Experimental: (§1) A shift in the binding affinity, $IC50$, is an indication that the peptide in question binds to albumin, and thereby a prediction of a potential protracted pharmacokinetic profile of the peptide in question in animal models.
(§2) 50 ul (micro liter) HSA ("high albumin" experiment containing 2% HSA), or buffer ("low albumin" experiment containing 0.001% HSA), was added to Optiplate, and 25 ul of test compounds were added. 5-10 ug membrane protein/sample was added (50 ul) corresponding to 0.1-0.2 mg protein/ml (to be preferably optimised for each membrane preparation). SPA-particles (Wheatgerm agglutinin SPA beads, Perkin Elmer, #RPNQ0001) were added in an amount of 0.5 mg/well (50 ul). […] The plates were sealed with PlateSealer and incubated for 120 minutes at 30° C. while shaking. The plates were centrifuged (1500 rpm, 10 min) and counted in Topcounter.

human GLP-1 receptor [2] = target: T1, human GLP-1 receptor; test: SPA, displacement of 125I-GLP-1(7-36)NH2 from hGLP-1R BHK membranes, low HSA (0.001%)
Experimental: as §1, §2

human GLP-1 receptor [3] = target: T1, human GLP-1 receptor; test: SPA, displacement of 125I-GLP-1(7-36)NH2 from hGLP-1R BHK membranes, high HSA (2.0%)
Experimental: as §1, §2

human GLP-1 receptor [4] = target: T1, human GLP-1 receptor; test: cell-based or functional assay

Binder	Ratio [(IC50/nM) high HSA]/[(IC50/nM) low HSA] (human GLP-1 receptor [1])	IC50 (human GLP-1 receptor [2]) [nM]	IC50 (human GLP-1 receptor [3]) [nM]	EC50/pM (in vitro potency, cAMP formation, AlphaScreen) (human GLP-1 receptor [4]) [pM]
HAEGTFTSDVSSYLEGQAARK([AEEA-AEEA-γGlu-Decanoyl(10-(4-HOOC-PhO))])FIEWLVRGK([AEEA-AEEA-γGlu-Decanoyl(10-(4-HOOC-PhO))])GE	246	0.5	123	96
HAEGTFTSDVSSYLEGQAVRK([AEEA-AEEA-γGlu-Decanoyl(10-(4-HOOC-PhO))])FIEWLVQGK([AEEA-AEEA-γGlu-Decanoyl(10-(4-HOOC-PhO))])GE (also called 13)	804	0.25	201	79
HAEGTFTSDVSSYLEGQAVRK([AEEA-AEEA-γGlu-Decanoyl(10-(4-HOOC-PhO))])FIEWLVRGK([AEEA-AEEA-γGlu-Decanoyl(10-(4-HOOC-PhO))])GQ (also called 12)	453	0.16	72	41
HAEGTFTSDVSSYLEGQAAHK([AEEA-AEEA-γGlu-Decanoyl(10-(4-HOOC-PhO))])FIEWLVRGK([AEEA-AEEA-γGlu-Decanoyl(10-(4-HOOC-PhO))])GE (also called 10)	70	6.49	452	214
HAEGTFTSDVSSYLEEQAAHK([AEEA-AEEA-γGlu-Decanoyl(10-(4-HOOC-PhO))])FIEWLVRGK([AEEA-AEEA-γGlu-Decanoyl(10-(4-HOOC-PhO))])GE (also called 21)	163	1.57	256	52
H[Aib]EGTFTSDVSSYLEEQAARK([AEEA-AEEA-γGlu-Decanoyl(10-(4-HOOC-PhO))])FIEWLVRGK([AEEA-AEEA-γGlu-Decanoyl(10-(4-HOOC-PhO))])GEG (also called 31)	629	0.35	220	37
HAEGTFTSDVSSYLEEQAARK([AEEA-AEEA-γGlu-Dodecanoyl(12-OPh(4-COOH))])FIEWLVRGK([AEEA-AEEA-γGlu-Dodecanoyl(12-OPh(4-COOH))])GEG (also called 32)	2050	0.18	369	76
HAEGTFTSDVSSYLEEQK([γGlu-AEEA-AEEA-C14 diacid])ARK([γGlu-AEEA-AEEA-C14 diacid])FIAHLVG (also called 22)	87	9.31	812	1180
HAEGTFTSDVSSYLEEQK([AEEA-AEEA-γGlu-C14 diacid])VRK([AEEA-AEEA-γGlu-C14 diacid])FIAWLVG (also called 27)	97	10.3	> 1000	835
HAEGTFTSDVSSYLEEQK([γGlu-AEEA-AEEA-C14 diacid])VRK([γGlu-AEEA-AEEA-C14 diacid])FIAWLVG (also called 30)	134	7.44	> 1000	3000
